Experimental data: publication PMC2853136 (Nucleic Acids Research, 2010)

B1: GST-RNPC1a (natural protein, UniProt Q9H0Z9-1 1-239, looked up)
chain: MLLQPAPCAPSAGFPRPLAAPGAMHGSQKDTTFTKIFVGGLPYHTTDASLRKYFEGFGDIEEAVVITDRQTGKSRGYGFVTMADRAAAERACKDPNPIIDGRKANVNLAYLGAKPRSLQTGFAIGVQQLHPTLIQRTYGLTPHYIYPPAIVQPSVVIPAAPVPSLSSPYIEYTPASPAYAQYPPATYDQYPYAASPATAASFVGYSYPAAVPQALSAAAPAGTTFVQYQAPQLQPDRMQ
B2: His-tagged RNPC1a (recombinant) (natural protein, UniProt Q9H0Z9-1 1-239, looked up)
chain: B1 chain
B3: GST-HuR (Δ95-244) (natural protein, UniProt Q15717 1-326, looked up)
chain: MSNGYEDHMAEDCRGDIGRTNLIVNYLPQNMTQDELRSLFSSIGEVESAKLIRDKVAGHSLGYGFVNYVTAKDAERAINTLNGLRLQSKTIKVSCIFIYNLGQDADEGILWQMFGPFGAVTNVKVIRDFNTNKCKGFGFVTMTNYEEAAMAIASLNGYRLGDKILQVSFKTNKSHK
B4: GST-HuR (134–326) (domain or fragment, UniProt Q15717 134-326, looked up)
chain: NSRVLVDQTTGLSRGVAFIRFDKRSEAEEAITSFNGHKPPGSSEPITVKFAANPNQNKNVALLSQLYHSPARRFGGPVHHQAQRFRFSPMGVDHMSGLSGVNVPGNASSGWCIFIYNLGQDADEGILWQMFGPFGAVTNVKVIRDFNTNKCKGFGFVTMTNYEEAAMAIASLNGYRLGDKILQVSFKTNKSHK
B5: GST-HuR (183–326) (domain or fragment, UniProt Q15717 183-326, looked up)
chain: FAANPNQNKNVALLSQLYHSPARRFGGPVHHQAQRFRFSPMGVDHMSGLSGVNVPGNASSGWCIFIYNLGQDADEGILWQMFGPFGAVTNVKVIRDFNTNKCKGFGFVTMTNYEEAAMAIASLNGYRLGDKILQVSFKTNKSHK

Assays:
Assay in all cases: pull-down
[1] = target: His-tagged HuR (recombinant) (UniProt Q15717 1-326)
GST-HuR (1–326) = GST-HuR (1–326) (UniProt Q15717 1-326)
[2] = target: B2

Row | Binder | binding result [2] | further results
1 | B1 | – | binding result [1]: binds
2 | B2 | – | binding result (GST-HuR (1–326)): binds
3 | B3 | binds | –
4 | B4 | binds | –
5 | B5 | binds | –
